Assay [1] relates to plasma membrane M(H)DM2/4. Put plainly: Plasma membrane M(H)DM2/4 after chemotherapeutic agents in vitro. Conditions: data not shown. The class given is cell-based.
Assay [2] relates to human pancreatic cancer MIA PaCa-2 cells. Put plainly: Cell-ELISA, intact cells. The assay is classed as binding. The method, then: (§1) Cell-ELISA Methodology: 8,000-10,000 cells/well of a 96-well microplate were grown overnight. The next day, unbound cells were washed off with sterile 1× PBS. The cells in each well were fixed with freshly prepared 4% buffered paraformaldehyde (pH 7.2) for 1 hour followed by 3 washes with 1× PBS. The wells were then blocked with 5% BSA in PBS (100 ? /well) for 2 hours at room temperature. Microplate wells were then washed 5 times with 300 ? of ice cold 1× PBS. MAbs NMC-103, NMC-204 or NMC-303 at 1 μg/mL in 1% BSA/PBS were then incubated with various cancer or normal untransformed cells for 2 hours at room temperature. Wells were then washed with 300 ? of ice-cold 1× PBS for 5 times and corresponding secondary antibody HRP-GaM F(ab′)2 diluted 1:2500 or 1:5000 in PBS with 1% BSA were added at 100 ? /well for 1 hour at room temperature followed by washing 5 times with 300 ? of ice-cold 1× PBS. TMB Substrate Solution (1-StepTM Ultra TMB-ELISA, ThermoFisher, Cat. No. 34028) was then added at 50 ? ? to each microplate well and incubated at room temperature for 30 minutes. The reaction was stopped by addition of 50 μL, of stop solution (ThermoFisher, Cat. No. SSO4) to each well and absorbance of each well was measured at OD450 nm. The absorbance value of each experimental well was corrected for the absorbance value obtained from wells treated with isotype-identical mAbs included in each experiment. The results are thus expressed as “relative binding”.
(An ELISA detects its analyte on a solid surface through an enzyme-linked reagent.)

Assay [3] concerns human, murine, rabbit protein. The arrangement: key: H—binds to human protein; M—binds to murine protein; R—binds to rabbit protein. Conditions: Table 10; cited from earlier work.
The test system of assay [4] is human breast cancer MCF-7 cells. Put plainly: Cell-ELISA, intact cells. The class given is binding. Conditions: mAb 1 μg/mL, FIGS. 3-5. The method, then: as §1
Assay [5] concerns the target NMC-P3 peptide (SEQ ID NO:3), amino acids 475-491 of HDM2 (Homo sapiens, UniProt Q00987). Put plainly: Peptide-ELISA, NMC-P3 peptide. The class given is binding. The conditions noted are these: 5 μg/ml peptide dried on plate; OD 450 nm. The method, then:
Peptide-ELISA Methodology: 5 μg/ml of NMC-P1, NMC-P2 or NMC-P3 peptide antigen was dried onto a 96-well ELISA plate overnight. Plates were then blocked with 5% BSA in 1× phosphate-buffered saline (PBS) (100 ? /well) for 2 hours at room temperature. Microplate wells were then washed 5 times with 300 ? of ice cold 1× PBS. Appropriate dilutions of monoclonal antibodies NMC-103, NMC-204 or NMC-303 in 1% bovine serum albumin (BSA) in PBS solution were then incubated with their corresponding peptides (NMC-P1, NMC-P2 or NMC-P3, respectively) at room temperature. After 2 hours, wells were washed 5 times with 300 ? ? ice-cold PBS/well and 100 ? secondary antibody (HRP-labeled Goat anti-Mouse F(ab′)2 H&L cross-adsorbed secondary antibody (HRP-GaM F(ab′)2), ThermoFisher, Cat. No. A24524) diluted 1:2500 to 1:5000 in PBS-1% BSA solution were added and the incubation continued at room temperature. After 1 hour, the wells were washed again 5 times with 200 ? of ice-cold PBS and 50 μiL of the TMB Substrate Solution (1-StepTM Ultra TMB-ELISA, ThermoFisher, Cat. No. 34028) were added to each well and color was allowed to develop for 30 minutes at room temperature. The reaction was stopped by addition of 50 μ ? ? of stop solution (ThermoFisher, Cat. No. SSO4) to each well and absorbance of each well was read immediately for optical density (OD) at 450 nm.

In assay [6] the target is T1, recombinant full-length HDM2 protein (GST tagged) (Homo sapiens, UniProt Q00987).
T1 construct: reacted with the recombinant full-length HDM2 protein; purchased Abcam ab188727
T1 sequence (Q00987 whole entry): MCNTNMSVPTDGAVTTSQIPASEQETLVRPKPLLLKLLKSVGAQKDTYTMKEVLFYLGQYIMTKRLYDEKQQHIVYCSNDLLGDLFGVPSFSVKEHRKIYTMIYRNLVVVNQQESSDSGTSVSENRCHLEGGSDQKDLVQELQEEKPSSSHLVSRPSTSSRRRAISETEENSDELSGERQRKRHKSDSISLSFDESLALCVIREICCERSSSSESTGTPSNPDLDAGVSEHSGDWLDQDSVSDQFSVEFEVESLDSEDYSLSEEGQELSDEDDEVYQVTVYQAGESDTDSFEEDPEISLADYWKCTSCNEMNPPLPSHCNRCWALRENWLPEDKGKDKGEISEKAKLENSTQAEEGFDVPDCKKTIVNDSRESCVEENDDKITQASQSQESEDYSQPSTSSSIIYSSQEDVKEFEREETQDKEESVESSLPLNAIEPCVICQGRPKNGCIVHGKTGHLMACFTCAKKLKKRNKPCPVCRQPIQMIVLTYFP
Put plainly: Western blot (immunoblot). The assay is classed as binding. Conditions: 1 μg/well protein; band at approximately 83 kD; FIG. 2. The procedure: Western Blot: As for immunoblots, 1 μg/well of recombinant FIDM2 protein (GST tagged, Abeam, Cat. No. ab188727) was separated on 8-16% sodium dodecyl sulfate (SDS) polyacrylamide gel and proteins were then transferred to polyvinylidene difluoride (PVDF) membrane. The membrane was blocked with 5% milk followed by incubation with monoclonal antibody NMC-103, NMC-204 or NMC-303 at 1 μg/πι ? in 1% milk in PBS for 2 hours. The membrane was then washed×3 times (10 minutes each) and incubated for 1 hour with corresponding HRP-conjugated secondary antibody (Goat anti-Mouse IgG (H&L), F(ab′)2 Frag Cross-adsorbed HRP (HRP-GaM F(ab′)2), ThermoFisher, Cat. No. A24524) diluted 1:5000 in 1% BSA-PBS. The membrane was then washed×3 times and incubated with Pierce ECL Plus Western Blotting Substrate (ThermoFisher, Cat. No. #32132) for 10 min before developing on a LICOR Scanner.
For orientation: In western blotting, separated proteins are transferred to a membrane and probed.

For assay [7], the system named is normal human peripheral blood mononuclear cells (PBMCs). Put plainly: Cell-ELISA, intact normal cells. The class given is binding. Conditions: freshly isolated PBMCs; FIG. 6. The procedure: as §1
Assay [8] concerns CT-26 (subcutaneous tumors). Put plainly: CT-26 syngeneic mouse model of colon cancer. Conditions: day 24 post tumor inoculation; 10 mg/kg two times a week for 3 weeks; n=4; FIG. 32A. The class given is in vivo, mouse (BALB/c). The procedure:
Utilizing another syngeneic mouse model of colon cancer, CT-26 (Selby et al., 2016, PLoS One. 9; 11(9): e0161779), the anti-tumor efficacy of a chimeric version of monoclonal antibody NMC-303 was assessed. To create the chimeric version of monoclonal antibody NMC-303, isotype class-switching was performed on a mouse NMC-303 (having heavy variable regions of SEQ ID NO:40 and light chain variable regions of SEQ ID NO:41) to convert it from a mouse IgM to a chimeric IgG1. The mouse Heavy and Light chain variable regions (SEQ ID NO:40 and SEQ ID NO:41, respectively) were cloned into a human Ig gamma-1 chain and human Ig kappa chain as constant region. A total of eight (8) BALB/c mice were injected subcutaneously with CT-26 (800,000 cells/mouse). Mice were then divided into two groups (n=4) that received: A) control antibody (10 mg/kg) or B) the chimeric version of monoclonal antibody NMC-303 (10 mg/kg) two times a week for 3 weeks. […] Due to the human constant region of the chimeric version of the monoclonal antibody NMC-303, the anti-tumor efficacy of this antibody might be improved if tested in mouse models with human immune background. The above in vivo results further support the anti-tumor efficacy of antibodies raised against NMC-P3 immunogen that target the extracellularly accessible epitopes of the M(H)DM2/4 on cancer cells.

As to `Nc1ccn([C@@H]2O[C@H](CO)[C@@H](O)C2(F)F)c(=O)n1` [Gemcitabine], in assay [1], the “plasma membrane M(H)DM2/4 of treated cells” value is given as “increase”.
The same measure, in the same setting: with `CC(=O)O[C@H]1C(=O)[C@@]2(C)[C@H]([C@H](OC(=O)c3ccccc3)[C@]3(O)C[C@H](OC(=O)[C@H](O)[C@@H](NC(=O)c4ccccc4)c4ccccc4)C(C)=C1C3(C)C)[C@]1(OC(C)=O)CO[C@@H]1C[C@@H]2O` [Paclitaxel] the entry was “increase”.
As to Cytochrome C [reference compound], the “binding to intact, EDTA-released MiaPaCa-2 cells, cell-ELISA” value in assay [2] (EDTA 10 mmols, pH 7.2, 5 min, 37° C., FIG. 10) is listed as “only minimal binding”. Moreover, the “Species Reactivity” value in assay [3] is listed as “H”.

B1: NMC-303: mouse monoclonal antibody, IgM isotype, binds NMC-P3 (SEQ ID NO:3); VH SEQ ID NO:40, VL SEQ ID NO:41 (antibody, V domains shown)
VH: QVQLQQPGAELVKPGASVKLSCKASGYTFTSYYMYWVKQRPGQGLEWIGGINPRNGGTNFNEKFKNKATLTADKSSTTAYMQLSSLTSEDSAVYYCTRSGYYAMDYWGQGTSVTVSS
VL: DIQMTQTTSSLSASLGDRVTISCRASQDISNFLNWYQQKPDGTVKLLIYYTSRLHSGVPSRFSGSGSGTDYSLTISNLEQEDIATYFCQQGNTLPRTFGGGTKLEIK
modifications: mAb NMC-303 Heavy Chain Variable Region; mAb NMC-303 Light Chain Variable Region
Consider B1, for which the “relative binding (reactivity) to intact cells, cell-ELISA” value is listed as “reactivity” in assay [4] and “reactivity” in assay [2] (MIA PaCa-2, mAb 1 μg/mL, FIGS. 3-5). In addition, in assay [2] (FIG. 8C), the “binding to intact MIA PaCa-2 cells when competed with NMC-P3 peptide” value is recorded as “competed”. For the same molecule, in assay [5], the “binding to NMC-P3 peptide (peptide-ELISA)” value was “bound”. The “reactivity with recombinant full-length HDM2-GST protein in immunoblot” value in assay [6] was “reacted”. The “binding to intact normal human PBMCs, cell-ELISA” value in assay [7] is on record as “virtually no binding”.

B2: chimeric version of monoclonal antibody NMC-303: chimeric IgG1: mouse NMC-303 variable regions cloned into human Ig gamma-1 chain and human Ig kappa chain constant regions (antibody, V domains shown)
VH: QVQLQQPGAELVKPGASVKLSCKASGYTFTSYYMYWVKQRPGQGLEWIGGINPRNGGTNFNEKFKNKATLTADKSSTTAYMQLSSLTSEDSAVYYCTRSGYYAMDYWGQGTSVTVSS
VL: DIQMTQTTSSLSASLGDRVTISCRASQDISNFLNWYQQKPDGTVKLLIYYTSRLHSGVPSRFSGSGSGTDYSLTISNLEQEDIATYFCQQGNTLPRTFGGGTKLEIK
modifications: human IgG1 and kappa constant regions lack entries; mAb NMC-303 Heavy Chain Variable Region; mAb NMC-303 Light Chain Variable Region
notes: chimeric IgG1: mouse NMC-303 variable regions cloned into human Ig gamma-1 chain and human Ig kappa chain constant regions
With B2, in assay [8], the average tumor size came to 726 mm^3.

(Values after patent US11407840B2, “Antibodies to M(H)DM2/4 and their use in diagnosing and treating cancer” (NomoCan Pharmaceuticals LLC, priority 2017, dated 2022).)
